Starred links: 1 amine or outer side, 2 acyl side, 3 side chain; linkers in the order of their positions; H or OH if unused. Non-standard residues stand in square brackets, D forms with d. PyrimAla4Ph4CO2H = 4-[5-[(2S)-2-amino-2-carboxy-ethyl]pyrimidin-2-yl]benzoic acid, O=C([C@H](Cc1cnc(-c2ccc(C(=O)[*:3])cc2)nc1)N[*:1])[*:2]; Phe(4-(5-CO2H-2-pyrimidyl)) = N[C@@H](Cc1ccc(-c2ncc(C(=O)O)cn2)cc1)C(=O)O; Phe(4-(4-Ac-piperazinyl)) = CC(=O)N1CCN(c2ccc(C[C@H](N)C(=O)O)cc2)CC1; dPro(4R-(4-pyridylmethyl)) = O=C(O)[C@H]1C[C@@H](Cc2ccncc2)CN1; Trp(βS-Me,4-F) = C[C@@H](c1c[nH]c2cccc(F)c12)[C@H](N)C(=O)O; Bip(4'-COOH) = N[C@@H](Cc1ccc(-c2ccc(C(=O)O)cc2)cc1)C(=O)O; Ala(1-bicyclo(1.1.1)pentyl) = N[C@@H](CC12CC(C1)C2)C(=O)O; dPro(4R-Bzl(4-F)) = O=C(O)[C@H]1C[C@@H](Cc2ccc(F)cc2)CN1; Ala(pyrimidin-5-yl) = N[C@@H](Cc1cncnc1)C(=O)O; Phe(4-COOH) = N[C@@H](Cc1ccc(C(=O)O)cc1)C(=O)O; Pro(cis-4-F) = O=C(O)[C@@H]1C[C@H](F)CN1; 4Pal = N[C@@H](Cc1ccncc1)C(=O)O; Dab = NCC[C@H](N)C(=O)O; Dap = NC[C@H](N)C(=O)O; Aib = CC(C)(N)C(=O)O
B1: SEQ ID NO: 83 (peptide)
peptide: cyclo([Phe(4-(5-CO2H-2-pyrimidyl))][Ala(1-bicyclo(1.1.1)pentyl)][Phe(4-COOH)]G[Pro(cis-4-F)][Trp(βS-Me,4-F)][Aib]SW[Aib][Ala(pyrimidin-5-yl)]Q[Dab]G[dPro(4R-Bzl(4-F))])
SMILES: C[C@@H](c1c[nH]c2cccc(F)c12)[C@@H]1NC(=O)[C@@H]2C[C@H](F)CN2C(=O)CNC(=O)[C@H](Cc2ccc(C(=O)O)cc2)NC(=O)[C@H](CC23CC(C2)C3)NC(=O)[C@H](Cc2ccc(-c3ncc(C(=O)O)cn3)cc2)NC(=O)[C@H]2C[C@@H](Cc3ccc(F)cc3)CN2C(=O)CNC(=O)[C@H](CCN)NC(=O)[C@H](CCC(N)=O)NC(=O)[C@H](Cc2cncnc2)NC(=O)C(C)(C)NC(=O)[C@H](Cc2c[nH]c3ccccc23)NC(=O)[C@H](CO)NC(=O)C(C)(C)NC1=O
B2: SEQ ID NO: 84 (peptide)
peptide: cyclo([Phe(4-(5-CO2H-2-pyrimidyl))][Ala(1-bicyclo(1.1.1)pentyl)][Phe(4-COOH)]G[Pro(cis-4-F)][Trp(βS-Me,4-F)][Aib]SW[Aib][4Pal]Q[Dab]G[dPro(4R-Bzl(4-F))])
SMILES: C[C@@H](c1c[nH]c2cccc(F)c12)[C@@H]1NC(=O)[C@@H]2C[C@H](F)CN2C(=O)CNC(=O)[C@H](Cc2ccc(C(=O)O)cc2)NC(=O)[C@H](CC23CC(C2)C3)NC(=O)[C@H](Cc2ccc(-c3ncc(C(=O)O)cn3)cc2)NC(=O)[C@H]2C[C@@H](Cc3ccc(F)cc3)CN2C(=O)CNC(=O)[C@H](CCN)NC(=O)[C@H](CCC(N)=O)NC(=O)[C@H](Cc2ccncc2)NC(=O)C(C)(C)NC(=O)[C@H](Cc2c[nH]c3ccccc23)NC(=O)[C@H](CO)NC(=O)C(C)(C)NC1=O
B3: SEQ ID NO: 85 (peptide)
peptide: cyclo([Phe(4-(5-CO2H-2-pyrimidyl))][4Pal][Phe(4-COOH)]G[Pro(cis-4-F)][Trp(βS-Me,4-F)][Aib]AW[Aib][4Pal]Q[Dab]G[dPro(4R-(4-pyridylmethyl))])
SMILES: C[C@@H]1NC(=O)C(C)(C)NC(=O)[C@H]([C@@H](C)c2c[nH]c3cccc(F)c23)NC(=O)[C@@H]2C[C@H](F)CN2C(=O)CNC(=O)[C@H](Cc2ccc(C(=O)O)cc2)NC(=O)[C@H](Cc2ccncc2)NC(=O)[C@H](Cc2ccc(-c3ncc(C(=O)O)cn3)cc2)NC(=O)[C@H]2C[C@@H](Cc3ccncc3)CN2C(=O)CNC(=O)[C@H](CCN)NC(=O)[C@H](CCC(N)=O)NC(=O)[C@H](Cc2ccncc2)NC(=O)C(C)(C)NC(=O)[C@H](Cc2c[nH]c3ccccc23)NC1=O
B4: SEQ ID NO: 87 (peptide)
peptide: cyclo([Phe(4-(5-CO2H-2-pyrimidyl))][Ala(1-bicyclo(1.1.1)pentyl)][Phe(4-COOH)]G[Pro(cis-4-F)][Trp(βS-Me,4-F)][Aib]AW[Aib][Ala(pyrimidin-5-yl)]Q[Dab]G[dPro(4R-(4-pyridylmethyl))])
SMILES: C[C@@H]1NC(=O)C(C)(C)NC(=O)[C@H]([C@@H](C)c2c[nH]c3cccc(F)c23)NC(=O)[C@@H]2C[C@H](F)CN2C(=O)CNC(=O)[C@H](Cc2ccc(C(=O)O)cc2)NC(=O)[C@H](CC23CC(C2)C3)NC(=O)[C@H](Cc2ccc(-c3ncc(C(=O)O)cn3)cc2)NC(=O)[C@H]2C[C@@H](Cc3ccncc3)CN2C(=O)CNC(=O)[C@H](CCN)NC(=O)[C@H](CCC(N)=O)NC(=O)[C@H](Cc2cncnc2)NC(=O)C(C)(C)NC(=O)[C@H](Cc2c[nH]c3ccccc23)NC1=O
B5: SEQ ID NO: 88 (peptide)
peptide: cyclo([Phe(4-(5-CO2H-2-pyrimidyl))][Ala(1-bicyclo(1.1.1)pentyl)][Phe(4-COOH)]G[Pro(cis-4-F)][Trp(βS-Me,4-F)][Aib]AW[Aib][4Pal]Q[Dab]G[dPro(4R-(4-pyridylmethyl))])
SMILES: C[C@@H]1NC(=O)C(C)(C)NC(=O)[C@H]([C@@H](C)c2c[nH]c3cccc(F)c23)NC(=O)[C@@H]2C[C@H](F)CN2C(=O)CNC(=O)[C@H](Cc2ccc(C(=O)O)cc2)NC(=O)[C@H](CC23CC(C2)C3)NC(=O)[C@H](Cc2ccc(-c3ncc(C(=O)O)cn3)cc2)NC(=O)[C@H]2C[C@@H](Cc3ccncc3)CN2C(=O)CNC(=O)[C@H](CCN)NC(=O)[C@H](CCC(N)=O)NC(=O)[C@H](Cc2ccncc2)NC(=O)C(C)(C)NC(=O)[C@H](Cc2c[nH]c3ccccc23)NC1=O
B6: SEQ ID NO: 89 (peptide)
peptide: cyclo([Phe(4-(5-CO2H-2-pyrimidyl))][Ala(1-bicyclo(1.1.1)pentyl)][Phe(4-COOH)]G[Pro(cis-4-F)][Trp(βS-Me,4-F)][Aib]SW[Aib][4Pal]Q[Dab]G[dPro(4R-(4-pyridylmethyl))])
SMILES: C[C@@H](c1c[nH]c2cccc(F)c12)[C@@H]1NC(=O)[C@@H]2C[C@H](F)CN2C(=O)CNC(=O)[C@H](Cc2ccc(C(=O)O)cc2)NC(=O)[C@H](CC23CC(C2)C3)NC(=O)[C@H](Cc2ccc(-c3ncc(C(=O)O)cn3)cc2)NC(=O)[C@H]2C[C@@H](Cc3ccncc3)CN2C(=O)CNC(=O)[C@H](CCN)NC(=O)[C@H](CCC(N)=O)NC(=O)[C@H](Cc2ccncc2)NC(=O)C(C)(C)NC(=O)[C@H](Cc2c[nH]c3ccccc23)NC(=O)[C@H](CO)NC(=O)C(C)(C)NC1=O
B7: SEQ ID NO: 9 (peptide)
peptide: cyclo([Bip(4'-COOH)][4Pal][Phe(4-COOH)]G[Pro(cis-4-F)][Trp(βS-Me,4-F)][Aib]EW[Aib][Ala(pyrimidin-5-yl)]QKG[dPro(4R-Bzl(4-F))])
SMILES: C[C@@H](c1c[nH]c2cccc(F)c12)[C@@H]1NC(=O)[C@@H]2C[C@H](F)CN2C(=O)CNC(=O)[C@H](Cc2ccc(C(=O)O)cc2)NC(=O)[C@H](Cc2ccncc2)NC(=O)[C@H](Cc2ccc(-c3ccc(C(=O)O)cc3)cc2)NC(=O)[C@H]2C[C@@H](Cc3ccc(F)cc3)CN2C(=O)CNC(=O)[C@H](CCCCN)NC(=O)[C@H](CCC(N)=O)NC(=O)[C@H](Cc2cncnc2)NC(=O)C(C)(C)NC(=O)[C@H](Cc2c[nH]c3ccccc23)NC(=O)[C@H](CCC(=O)O)NC(=O)C(C)(C)NC1=O
B8: SEQ ID NO: 91 (peptide)
peptide: cyclo([PyrimAla4Ph4CO2H][4Pal][Phe(4-COOH)]G[Pro(cis-4-F)][Trp(βS-Me,4-F)][Aib]EW[Aib][Ala(pyrimidin-5-yl)]Q[Dab]G[dPro(4R-Bzl(4-F))])
SMILES: C[C@@H](c1c[nH]c2cccc(F)c12)[C@@H]1NC(=O)[C@@H]2C[C@H](F)CN2C(=O)CNC(=O)[C@H](Cc2ccc(C(=O)O)cc2)NC(=O)[C@H](Cc2ccncc2)NC(=O)[C@H](Cc2cnc(-c3ccc(C(=O)O)cc3)nc2)NC(=O)[C@H]2C[C@@H](Cc3ccc(F)cc3)CN2C(=O)CNC(=O)[C@H](CCN)NC(=O)[C@H](CCC(N)=O)NC(=O)[C@H](Cc2cncnc2)NC(=O)C(C)(C)NC(=O)[C@H](Cc2c[nH]c3ccccc23)NC(=O)[C@H](CCC(=O)O)NC(=O)C(C)(C)NC1=O
B9: SEQ ID NO: 92 (peptide)
peptide: cyclo([PyrimAla4Ph4CO2H][Ala(1-bicyclo(1.1.1)pentyl)][Phe(4-COOH)]G[Pro(cis-4-F)][Trp(βS-Me,4-F)][Aib]EW[Aib][Ala(pyrimidin-5-yl)]Q[Dab]G[dPro(4R-Bzl(4-F))])
SMILES: C[C@@H](c1c[nH]c2cccc(F)c12)[C@@H]1NC(=O)[C@@H]2C[C@H](F)CN2C(=O)CNC(=O)[C@H](Cc2ccc(C(=O)O)cc2)NC(=O)[C@H](CC23CC(C2)C3)NC(=O)[C@H](Cc2cnc(-c3ccc(C(=O)O)cc3)nc2)NC(=O)[C@H]2C[C@@H](Cc3ccc(F)cc3)CN2C(=O)CNC(=O)[C@H](CCN)NC(=O)[C@H](CCC(N)=O)NC(=O)[C@H](Cc2cncnc2)NC(=O)C(C)(C)NC(=O)[C@H](Cc2c[nH]c3ccccc23)NC(=O)[C@H](CCC(=O)O)NC(=O)C(C)(C)NC1=O
B10: SEQ ID NO: 93 (peptide)
peptide: cyclo([Bip(4'-COOH)][Ala(1-bicyclo(1.1.1)pentyl)][Phe(4-COOH)]G[Pro(cis-4-F)][Trp(βS-Me,4-F)][Aib]EW[Aib][Dap]Q[Dab]G[dPro(4R-(4-pyridylmethyl))])
SMILES: C[C@@H](c1c[nH]c2cccc(F)c12)[C@@H]1NC(=O)[C@@H]2C[C@H](F)CN2C(=O)CNC(=O)[C@H](Cc2ccc(C(=O)O)cc2)NC(=O)[C@H](CC23CC(C2)C3)NC(=O)[C@H](Cc2ccc(-c3ccc(C(=O)O)cc3)cc2)NC(=O)[C@H]2C[C@@H](Cc3ccncc3)CN2C(=O)CNC(=O)[C@H](CCN)NC(=O)[C@H](CCC(N)=O)NC(=O)[C@H](CN)NC(=O)C(C)(C)NC(=O)[C@H](Cc2c[nH]c3ccccc23)NC(=O)[C@H](CCC(=O)O)NC(=O)C(C)(C)NC1=O
B11: SEQ ID NO: 94 (peptide)
peptide: cyclo([Phe(4-(5-CO2H-2-pyrimidyl))][Ala(1-bicyclo(1.1.1)pentyl)][Phe(4-COOH)]G[Pro(cis-4-F)][Trp(βS-Me,4-F)][Aib]AW[Aib]SQ[Dab]G[dPro(4R-Bzl(4-F))])
SMILES: C[C@@H]1NC(=O)C(C)(C)NC(=O)[C@H]([C@@H](C)c2c[nH]c3cccc(F)c23)NC(=O)[C@@H]2C[C@H](F)CN2C(=O)CNC(=O)[C@H](Cc2ccc(C(=O)O)cc2)NC(=O)[C@H](CC23CC(C2)C3)NC(=O)[C@H](Cc2ccc(-c3ncc(C(=O)O)cn3)cc2)NC(=O)[C@H]2C[C@@H](Cc3ccc(F)cc3)CN2C(=O)CNC(=O)[C@H](CCN)NC(=O)[C@H](CCC(N)=O)NC(=O)[C@H](CO)NC(=O)C(C)(C)NC(=O)[C@H](Cc2c[nH]c3ccccc23)NC1=O

These binders were tested against Recombinant human IL-1β (BioLegend 579404) (human, UniProt P01584 117-269) (assay: cell-based or functional assay).

Binder	MRC5 IC50 [nM]
B1	0.045
B2	0.047
B3	0.074
cyclo([Phe(4-(5-CO2H-2-pyrimidyl))][Ala(1-bicyclo(1.1.1)pentyl)][Phe(4-COOH)]G[Pro(cis-4-F)][Trp(βS-Me,4-F)][Aib]EW[Aib][4Pal]Q[Dab]G[dPro(4R-(4-pyridylmethyl))]) [SEQ ID NO: 86]	0.075
B4	0.087
B5	0.083
B6	0.045
B7	0.028
cyclo([Phe(4-(4-Ac-piperazinyl))][Ala(1-bicyclo(1.1.1)pentyl)][Phe(4-COOH)]G[Pro(cis-4-F)][Trp(βS-Me,4-F)][Aib]EW[Aib][4Pal]Q[Dab]G[dPro(4R-Bzl(4-F))]) [SEQ ID NO: 90]	0.064
B8	0.054
B9	0.07
B10	0.059
B11	0.096
